Residue numbers refer to the chain shown, from its start. “Also recorded” adds a separate entry of the source. Each block holds one molecule with its values, some of them ahead of it.
Assays:
[1] = target: conductin amino acids Ala342-Arg465 fused to Lex-A (vector BTM 116) (UniProt P0A7C2); experiment: yeast 2-hybrid, β-galactosidase reporter; percent of wild type β-catenin
[2] = target: T1, LEF-1 (Mus musculus, UniProt P27782); experiment: yeast 2-hybrid: interaction of β-catenin mutants with LEF-1; type: binding; conditions: for Interaction With LEF-1, share of wild type β-catenin interaction: yeast 2-hybrid, alanine mutants
T1 construct: the cDNA of LEF-1 for the amino acids 1–99; expressed in transfected cells; host or cells: yeast (two-hybrid, Matchmaker, Clontech)
Description: (§1) The mutagenesis of β-catenin in the armadillo repeats 3–8 was carried out by means of the “mutagenesis kit” of the company Clontech according to the producer's record and the mutants were checked by sequencing (FIG. 5). In all mutants the original amino acid was substituted by alanine. For analyzing the interactions the cDNA of human β-catenin (armadillo repeat 3 up to the C-terminal end of the protein) coding for the amino acids Leu218–Leu7 μl or its mutants was cloned into the fusion vector for the activation domain of Gal-4 (pGAD424, Clontech). The cDNA for the binding domains of the interaction partners was cloned into the Lex-A fusion vector BTM 116. To this end, the cDNA of LEF-1 for the amino acids 1–99, conductin for the amino acids Ala342–ARG465; of human APC for the amino acids His1012–Glu1215 (APC 15 amino acid repeats) and for the amino acids Ser1259Asp 1400 (APC 20 amino acid repeats) and E-cadherin for the amino acids Gin773–Asp884 (cytoplasmatic domain) were amplified with the respective primers PCR. The interaction of the Lex-A hybrids with β-catenin and its mutants was quantified by means of the β-galactosidase reporter activity in the yeast 2-hybrid system (report: “Matchmaker”. Clontech) (Tab. 2 and FIG. 6).

[3] = target: T2, APC (20 amino acid repeats) (Homo sapiens, UniProt P25054); experiment: yeast 2-hybrid: interaction of β-catenin mutants with APC 20 amino acid repeats; type: binding; conditions: yeast 2-hybrid, alanine mutants
T2 construct: for the amino acids Ser1259Asp 1400 (APC 20 amino acid repeats); expressed in transfected cells; host or cells: yeast (two-hybrid, Matchmaker, Clontech)
T2 sequence (P25054 1253-1394 limits assumed): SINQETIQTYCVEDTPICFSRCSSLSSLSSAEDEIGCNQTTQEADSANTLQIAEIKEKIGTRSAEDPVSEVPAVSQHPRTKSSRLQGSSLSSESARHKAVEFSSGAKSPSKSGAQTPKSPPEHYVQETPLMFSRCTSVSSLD
Description: as §1

[4] = target: T3, APC (15 amino acid repeats) (Homo sapiens, UniProt P25054); experiment: yeast 2-hybrid: interaction of β-catenin mutants with APC 15 amino acid repeats; type: binding; conditions: yeast 2-hybrid, alanine mutants
T3 construct: of human APC for the amino acids His1012–Glu1215 (APC 15 amino acid repeats); expressed in transfected cells; host or cells: yeast (two-hybrid, Matchmaker, Clontech)
T3 sequence (P25054 1006-1209 limits assumed): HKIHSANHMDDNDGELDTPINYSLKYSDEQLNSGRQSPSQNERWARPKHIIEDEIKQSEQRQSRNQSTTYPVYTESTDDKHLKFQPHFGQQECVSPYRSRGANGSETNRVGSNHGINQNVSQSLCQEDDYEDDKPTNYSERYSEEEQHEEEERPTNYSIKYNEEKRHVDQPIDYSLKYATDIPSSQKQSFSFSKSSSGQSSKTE
Description: as §1

[5] = target: T4, conductin (Mus musculus, UniProt O88566); experiment: yeast 2-hybrid: interaction of β-catenin mutants with conductin; type: binding; conditions: for Interaction With Conductin, share of wild type β-catenin interaction: yeast 2-hybrid, alanine mutants
T4 construct: conductin for the amino acids Ala342–ARG465; expressed in transfected cells; host or cells: yeast (two-hybrid, Matchmaker, Clontech)
Description: as §1

T1 sequence (P27782 1-99): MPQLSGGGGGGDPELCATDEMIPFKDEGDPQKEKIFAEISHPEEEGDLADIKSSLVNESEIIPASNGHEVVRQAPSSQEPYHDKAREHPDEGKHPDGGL
T4 sequence (O88566 343-465 limits assumed): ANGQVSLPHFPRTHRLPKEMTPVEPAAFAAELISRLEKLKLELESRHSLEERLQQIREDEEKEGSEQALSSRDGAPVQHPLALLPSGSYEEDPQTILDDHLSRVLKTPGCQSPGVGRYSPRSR
Sequence of conductin amino acids Ala342-Arg465 fused to Lex-A (vector BTM 116) (P0A7C2 other isoform, or with tags, fused parts or gaps limits assumed, form in doubt): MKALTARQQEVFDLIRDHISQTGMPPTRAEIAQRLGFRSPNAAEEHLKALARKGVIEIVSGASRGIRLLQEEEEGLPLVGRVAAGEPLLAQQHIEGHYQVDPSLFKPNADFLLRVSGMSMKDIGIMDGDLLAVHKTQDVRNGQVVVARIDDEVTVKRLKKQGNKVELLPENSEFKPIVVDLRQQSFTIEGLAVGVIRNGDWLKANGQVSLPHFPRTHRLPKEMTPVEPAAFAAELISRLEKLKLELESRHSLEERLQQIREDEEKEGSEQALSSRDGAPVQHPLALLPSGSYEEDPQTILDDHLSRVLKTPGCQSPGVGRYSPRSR

share of the interaction with wild type β-catenin in percent [1]: 36%
Molecule: human β-catenin (Leu218-Leu781) mutant Arg 457 to alanine, Gal-4 activation domain fusion (from UniProt P35222 218-781)

Interaction With APC-15, share of wild type β-catenin interaction [4]: 54%
Interaction With Conductin, share of wild type β-catenin interaction [5]: 43%
B2: Lys 354: human β-catenin mutant, Lys 354 substituted by alanine (arm 6) (protein)
chain: LHNLSHHREGLLAIFKSGGIPALVKMLGSPVDSVLFYAITTLHNLLLHQEGAKMAVRLAGGLQKMVALLNKTNVKFLAITTDCLQILAYGNQESKLIILASGGPQALVNIMRTYTYEKLLWTTSRVLKVLSVCSSNAPAIVEAGGMQALGLHLTDPSQRLVQNCLWTLRNLSDAATKQEGMEGLLGTLVQLLGSDDINVVTCAAGILSNLTCNNYKNKMMVCQVGGIEALVRTVLRAGDREDITEPAICALRHLTSRHQEAEMAQNAVRLHYGLPVVVKLLHPPSHWPLIKATVGLIRNLALCPANHAPLREQGAIPRLVQLLVRAHQDTQRRTSMGGTQQQFVEGVRMEEIVEGCTGALHILARDVHNRIVIRGLNTIPLFVQLLYSPIENIQRVAAGVLCELAQDKEAAEAIEAEGATAPLTELLHSRNEGVATYAAAVLFRMSEDKPQDYKKRLSVELTSSLFRTEPMAWNETADLGLDIGAQGEPLGYRQDDPSYRSFHSGGYGQDALGMDPMMEHEMGGHHPGADYPVDGLPDLGHAQDLMDGLPPGDSNQLAWFDTDL
modifications: left off: large carriers; small tags and cut ends
Interaction With APC-20, share of wild type β-catenin interaction [3]: — (Interactions marked by — correspond to 60–100% of the wild type interaction)

Interaction With APC-20, share of wild type β-catenin interaction [3]: 29%
Interaction With Conductin, share of wild type β-catenin interaction [5]: 20%
B3: Arg 342: human β-catenin mutant, Arg 342 substituted by alanine (arm 5) (protein)
chain: B2 chain with R125A, A137K
modifications: left off: large carriers; small tags and cut ends
Interaction With LEF-1, share of wild type β-catenin interaction [2]: — (Interactions marked by — correspond to 60–100% of the wild type interaction)
Interaction With APC-15, share of wild type β-catenin interaction [4]: — (Interactions marked by — correspond to 60–100% of the wild type interaction)

Interaction With APC-20, share of wild type β-catenin interaction [3]: 40%
Interaction With Conductin, share of wild type β-catenin interaction [5]: 10%
B4: His 260: human β-catenin mutant, His 260 substituted by alanine (arm 3) (protein)
chain: B2 chain with H43A, A137K
modifications: left off: large carriers; small tags and cut ends

Interaction With APC-20, share of wild type β-catenin interaction [3]: 0%
Interaction With Conductin, share of wild type β-catenin interaction [5]: 22%
B6: Lys 345: human β-catenin mutant, Lys 345 substituted by alanine (arm 5) (protein)
chain: B2 chain with K128A, A137K
modifications: left off: large carriers; small tags and cut ends
Interaction With APC-15, share of wild type β-catenin interaction [4]: — (Interactions marked by — correspond to 60–100% of the wild type interaction)

Second part, the molecule before the results:

Molecule: human β-catenin (Leu218-Leu781) mutant Lys 394 to alanine, Gal-4 activation domain fusion (from UniProt P35222 218-781)
share of the interaction with wild type β-catenin in percent [1]: 42%

B1: Arg 469: human β-catenin mutant, Arg 469 substituted by alanine (arm 8) (protein)
chain: B2 chain with A137K, R252A
modifications: left off: large carriers; small tags and cut ends
interaction with LEF-1/TCF-4 ([2]; β-catenin mutation, in words): blocking the interaction; also recorded: no interaction with LEF-1/TCF-4
Interaction With APC-20, share of wild type β-catenin interaction [3]: — (Interactions marked by — correspond to 60–100% of the wild type interaction)
Interaction With APC-15, share of wild type β-catenin interaction [4]: — (Interactions marked by — correspond to 60–100% of the wild type interaction)
Interaction With Conductin, share of wild type β-catenin interaction [5]: — (Interactions marked by — correspond to 60–100% of the wild type interaction)

B5: Arg 274: human β-catenin mutant, Arg 274 substituted by alanine (arm 4) (protein)
chain: B2 chain with R57A, A137K
modifications: left off: large carriers; small tags and cut ends
Interaction With LEF-1, share of wild type β-catenin interaction [2]: — (Interactions marked by — correspond to 60–100% of the wild type interaction)
Interaction With APC-20, share of wild type β-catenin interaction [3]: 40%
Interaction With APC-15, share of wild type β-catenin interaction [4]: — (Interactions marked by — correspond to 60–100% of the wild type interaction)
Interaction With Conductin, share of wild type β-catenin interaction [5]: 29%
interaction with conductin ([5]; β-catenin mutation, in words): no interaction with conductin

— US7067474B1, “Agents for treating human illnesses based on β-catenin, and the production and use thereof” (Max-Delbruck-Centrum fur Molekulare Medizin, priority 1998, dated 2006)
